Positions count from the first letter of the chain named.
B1: MOR09823 (antibody, V domains shown)
VH: QVQLVESGGGLVQPGGSLRLSCAASGFTFSSYAMSWVRQAPGKGLEWVSVTGAVGRTYYPDSVKGRFTISRDNSKNTLYLQMNSLRAEDTAVYYCARWGDEGFDIWGQGTLVTVSS
VL: DIQMTQSPSSLSASVGDRVTITCRASQGISNWLAWYQQKPGKAPKLLIYGASSLQSGVPSRFSGSGSGTDFTLTISSLQPEDFAVYYCQQYSSFPTTFGQGTKVEIKR
B2: MOR09825 (antibody, human IgG1, kappa, V domains shown)
VH: QVQLVESGGGLVQPGGSLRLSCAASGFTFSSYAMSWVRQAPGKGLEWVSAINSQGKSTYYADSVKGRFTISRDNSKNTLYLQMNSLRAEDTAVYYCARWGDEGFDIWGQGTLVTVSS
VL: B1 VL
B3: MOR09824 (antibody, human IgG1, kappa, V domains shown)
VH: B2 VH with A50V, N52S, S53A, Q54W, K56H, S57V, T58K
VL: B1 VL
B4: MOR09974 (antibody, human IgG1, kappa, V domains shown)
VH: B2 VH with A50V, S53P, Q54S, K56N, S57F, Y59N
VL: B1 VL
B5: MOR10701 (antibody, human IgG1, kappa, V domains shown)
VH: B2 VH with Q1E, V5L, A50V, I51T, N52G, S53A, Q54V, K56R, A61P
VL: B1 VL with V85T
B6: MOR10703 (antibody, human IgG1, kappa, V domains shown)
VH: B2 VH with Q1E, V5L
VL: B1 VL with V85T
B7: MOR10702 (antibody, human IgG1, kappa, V domains shown)
VH: B2 VH with Q1E, V5L, A50V, N52S, S53A, Q54W, K56H, S57V, T58K
VL: B1 VL with V85T

Molecular target: endogenous human HER3 on human cancer cells (SK-Br-3, MCF7, BT-474) (human, UniProt P21860 20-1342)
Assay: cell-based or functional assay

| Binder | % inhibition of proliferation, BT-474, 10 µg/ml IgG | % inhibition of proliferation, MCF7 (neuregulin stimulated), 10 µg/ml IgG | % inhibition of proliferation, SK-Br-3, 10 µg/ml IgG |
| --- | --- | --- | --- |
| B1 | 39.8% | 82% | 39% |
| B2 | 37.2% | 63% | 41% |
| B3 | 36.8% | 82% | 33% |
| B4 | – | 20% | 35% |
| B5 | 43.6% | – | – |
| B6 | 41.6% | 81% | 35% |
| B7 | 43.8% | – | – |

Molecular target: T1, HER3 K267A (CD33-[Human HER3, residues 20-640, K267A]-TAG) (human, UniProt P21860 20-640)
T1 construct: also called HER3 K267A-Tag; not shown: C-terminal TAG (e.g., FLAG TAG)
Assay: ELISA titration on coated recombinant mutant HER3

| Binder | binding result |
| --- | --- |
| B6 | no binding (tested: up to 10 µg/mL antibody (Example 7)) |

Molecular target: T2, HER3 L268A (CD33-[Human HER3, residues 20-640, L268A]-TAG) (human, UniProt P21860 20-640)
T2 construct: also called HER3 L268A-Tag; not shown: C-terminal TAG (e.g., FLAG TAG)
Assay: ELISA titration on coated recombinant mutant HER3

| Binder | binding result |
| --- | --- |
| B6 | no binding (tested: up to 10 µg/mL antibody (Example 7)) |

From patent US20190194347A1, “ANTIBODIES FOR EPIDERMAL GROWTH FACTOR RECEPTOR 3 (HER3)” (NOVARTIS AG, priority 2010, published 2019)
